Measured values: the supplement of paper PMC9732359
± gives the uncertainty stated by the source.

Assay: protein stability index of a GFP-peptide fusion (yeast GPS) (PSI 1-4); higher = more stable; sorted into four equal gates, so the index is relative within each strain
In short: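 Plasmids isolated from each sorting gate were PCR-amplified and Illumina-sequenced, and barcodes assigned the reads to strains. The gates, four of equal size, were set by GFP/Cherry fluorescence ratio on mid-log cultures in leucine-free medium. These cultures were yeast carrying a pooled library of tiled 17-residue yeast protein peptides fused downstream of GFP on a plasmid that also expresses Cherry. The protein stability index is the sum of every gate's read frequency times its gate number.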

Sequence | protein stability index (doa10∆) | protein stability index (pdr5∆) | protein stability index (san1∆) | protein stability index (ubr1∆)
TLAEVKAAGLTAAYART [RPL13A] | 1.38 ± 0.11 | 1.89 ± 0.097 | 1.5 ± 0.12 | 1.54 ± 0.061
RELLVEGYGLRDVMCTD [RPO31] | 2.36 ± 0.063 | 2.57 ± 0.063 | 2.77 ± 0.066 | 2.95 ± 0.056
GRPRYDTFGEGIIITDQ [BRR2] | 3.02 ± 0.15 | 2.85 ± 0.14 | 2.62 ± 0.14 | 3.11 ± 0.11
PKDFSPNFTGIDKLMLS [SSN2] | 1.42 ± 0.17 | 1.38 ± 0.15 | 1.85 ± 0.27 | 1.26 ± 0.11
DCIIRLPVKWETTTQFK [FAS1] | 1.74 ± 0.083 | 2.03 ± 0.074 | 1.94 ± 0.091 | 2.43 ± 0.11
TPDASKPSFSFGVPNSS [YLR335W/NUP2] | 2.92 ± 0.088 | 3.14 ± 0.086 | 3.07 ± 0.068 | 2.94 ± 0.072
LDLSRSNGVLNVDNQTS [RPS17A] | – | 3.09 ± 0.22 | – | –
NFYRPLLRSVLVLLELV [YML103C/NUP188] | 1.23 ± 0.066 | 1.21 ± 0.087 | 1.18 ± 0.12 | 1.06 ± 0.074
HLSKSPADRPQGRRNSR [SIR4] | 2.79 ± 0.089 | 2.85 ± 0.067 | 2.75 ± 0.059 | 2.78 ± 0.058
VSLTKRKQEREITSLRQ [YIL149C/MLP2] | 2.03 ± 0.2 | 2.32 ± 0.14 | 2.45 ± 0.14 | 2.35 ± 0.071
VNNGNIPSQRGTSTTHG [SIR3] | 2.37 ± 0.16 | 2.85 ± 0.088 | 2.78 ± 0.094 | 2.73 ± 0.072
KAKRQINSGTNSANGSS [SSN3] | 2.52 ± 0.057 | 2.68 ± 0.058 | 2.92 ± 0.057 | 2.91 ± 0.046
VYREVCAACHSLDRVAW [CYT1] | 3.36 ± 0.26 | 3.04 ± 0.12 | 2.71 ± 0.17 | 2.86 ± 0.13
PQLISDKFSPEDGLGPL [ARP7] | 2.84 ± 0.072 | 2.83 ± 0.067 | 2.6 ± 0.062 | 2.61 ± 0.055
ENLFSKEEVCQGMEGTV [YMR129W/POM152] | 2.5 ± 0.073 | 2.95 ± 0.073 | 2.92 ± 0.054 | 2.65 ± 0.089
DDYKDLTCSLYELYINK [IRR1] | 2.74 ± 0.084 | 2.75 ± 0.12 | 3.16 ± 0.056 | 2.94 ± 0.079
KTTPNTASSEASAGSKE [YMR153W/NUP53] | 2.98 ± 0.052 | 3.34 ± 0.061 | 3.16 ± 0.046 | 3.12 ± 0.038
LRKNKLGYARFILLDRL [SMC4] | 1.15 ± 0.042 | 1.25 ± 0.048 | 1.14 ± 0.14 | 1.15 ± 0.055
AKKNNFIEDLAPEQQVQ [UBP6] | 2.81 ± 0.073 | 3.15 ± 0.08 | 2.99 ± 0.08 | 3.06 ± 0.065
AAPSAADIKAVVESVGA [RPP2B] | 3.08 ± 0.1 | 3.06 ± 0.073 | 3.05 ± 0.094 | 3.29 ± 0.084
SFEETVEILFEAGASAE [RPO21] | 2.7 ± 0.11 | 2.77 ± 0.09 | 2.89 ± 0.063 | 2.51 ± 0.093
TQPKATSTGTTIVGVKF [PUP1] | 3.48 ± 0.12 | 3.52 ± 0.1 | 3.28 ± 0.1 | 3.03 ± 0.091
RKKARTFDSSWNWAKQS [FAS2] | 1.79 ± 0.14 | 1.97 ± 0.12 | 2.32 ± 0.12 | 2.95 ± 0.074
DWEDEEKYEDEDEEKIL [DSN1] | 3.28 ± 0.11 | 2.94 ± 0.16 | 3.26 ± 0.24 | 3.25 ± 0.15
VTQKDICILGILDLCQL [CSI1] | 2.59 ± 0.091 | 2.85 ± 0.072 | 2.24 ± 0.11 | 1.29 ± 0.15
CVNLSLFDARFERKNPH [SRB8] | 3.2 ± 0.089 | 3.16 ± 0.061 | 3.34 ± 0.083 | 3.17 ± 0.053
DQMVVGWYHSHPGFGCW [RPN11] | 2.57 ± 0.079 | 2.92 ± 0.063 | 2.37 ± 0.069 | 2.21 ± 0.087

Sequence | protein stability index (doa10∆) | protein stability index (pdr5∆) | protein stability index (san1∆) | protein stability index (ubr1∆)
IIRPILGKVRFANYKLL [SRB4] | 1.44 ± 0.045 | 1.75 ± 0.043 | 1.14 ± 0.1 | 1.73 ± 0.057
NAYGFIEWCSRCNDNLM [YJL039C/NUP192] | 3 ± 0.079 | 2.54 ± 0.088 | 2.75 ± 0.083 | 2.24 ± 0.078
KKQAQKQTKLRKEKEKK [SMB1] | 3.04 ± 0.27 | – | 2.46 ± 0.3 | –
DISGTMSGGGNHVAKGL [SMC4] | 3.19 ± 0.2 | – | 3.25 ± 0.13 | –
EKSLLPKIETNVYVGMT [ISW2] | 2.92 ± 0.13 | 2.97 ± 0.11 | 3.07 ± 0.098 | 3.2 ± 0.1
VQEQLSKNRIIVEADEK [RET1] | 1.52 ± 0.088 | 1.37 ± 0.052 | 1.65 ± 0.14 | 1.4 ± 0.062
KDSVTECSKDMKEDGLS [SIR4] | 3.21 ± 0.12 | 3.45 ± 0.066 | 3.23 ± 0.07 | 3.32 ± 0.049
ILRMGAFRTIESKSDDN [RRI1] | 2.88 ± 0.094 | 2.8 ± 0.11 | 2.92 ± 0.066 | 2.56 ± 0.065
IRNVLVTVDQYVNVAIS [SSN2] | 1.21 ± 0.044 | 1.25 ± 0.058 | 1.29 ± 0.089 | 1.39 ± 0.058
VKKVQLGKKGVPYVVTH [RPS4A] | 1.77 ± 0.098 | 2.07 ± 0.13 | 3.06 ± 0.064 | 2.04 ± 0.071
AIPNGIHLQRFDEGTTL [RPO21] | 2.29 ± 0.064 | 1.89 ± 0.11 | – | 2.32 ± 0.062
LKFFLVDENETVLESLG [LIN1] | 3.26 ± 0.27 | 2.94 ± 0.092 | 2.9 ± 0.18 | 3.04 ± 0.15
KLASTLEKISSSNKDLE [SMC4] | 3.09 ± 0.053 | 2.68 ± 0.067 | 2.96 ± 0.038 | 2.82 ± 0.056
PTVDEQRQYKVQLLLHI [SNF11] | 1.8 ± 0.12 | 1.95 ± 0.082 | 1.82 ± 0.12 | 1.89 ± 0.065
FLKEKDTVAELQAQLDY [FAS2] | 2.88 ± 0.091 | 3.07 ± 0.11 | 3.15 ± 0.051 | 3.02 ± 0.067
PLDRLENVLAIGIAGAH [SKI6] | 1.26 ± 0.085 | 1.78 ± 0.092 | 1.54 ± 0.18 | 1.85 ± 0.12
TAAFTAMICEAKGLIEN [YJR042W/NUP85] | 2.62 ± 0.067 | 2.86 ± 0.06 | 2.72 ± 0.068 | 2.94 ± 0.052
DNNYNTAETNNKVHETS [YDL088C/ASM4] | 2.99 ± 0.078 | 2.92 ± 0.069 | 2.78 ± 0.052 | 2.81 ± 0.051
LKRYCCRRMILTHVDLI [RPB10] | – | 1.54 ± 0.11 | – | 1.57 ± 0.12
RGYFITQEEVELPLEDF [RPB5] | 3.46 ± 0.19 | 3.01 ± 0.16 | 3.28 ± 0.15 | 3.14 ± 0.086
KRKYDEITHPPSTTDDE [SWI3] | 3.13 ± 0.11 | 3.23 ± 0.12 | 3.18 ± 0.071 | 3.29 ± 0.082
TCRKHTQHKVTQYKAGK [RPL42A] | 3.09 ± 0.14 | 2.85 ± 0.12 | 2.62 ± 0.07 | 2.91 ± 0.088
FTGDFLRRVEERFTKSK [FAS1] | 3.29 ± 0.14 | 3.6 ± 0.16 | 3.19 ± 0.083 | 2.78 ± 0.27
SNFTSIIGPNGSGKSNM [SMC1] | 3.33 ± 0.13 | 3.04 ± 0.15 | 3.37 ± 0.12 | 3.46 ± 0.093
TSLSSKDLSNYRKTEGI [YMR153W/NUP53] | 3.12 ± 0.088 | 3.25 ± 0.085 | 3.24 ± 0.062 | 3.35 ± 0.043
VGLSQPDAKIQVRRDIP [YMR129W/POM152] | 2.98 ± 0.082 | 2.76 ± 0.14 | 2.51 ± 0.059 | 2.97 ± 0.066
